Square brackets hold non-standard residues; d marks the D form. Ends that are not written are not given here. Pra = C#CC[C@H](N)C(=O)O
Test: PADRE peptide solubility / staying in solution
Format: physicochemical
Protocol: It is possible that the PADRE constructs disclosed herein may have solubility limitations in aqueous solutions (<5 mg/ml max concentration) versus DMSO solutions (<10 mg/ml max concentration), so conditions for PADRE solubility were adjusted to achieve optimum click conjugation efficiency. Ionic gelling may have occurred during the CDAP or DMTMM direct incorporation of PADRE 2, as buffer matrix with high ionic strength in higher concentrated Pn3 solutions promotes gelling. Aggregation with an alkynated CRM197 batch fed approach was also observed in click conjugation reactions. To avoid potential solubility issues, the following conditions with PADRE 3 were proposed: 1. Lower the ionic strength of the reaction matrix and diafiltration matrix to 10 mM phosphate pH 7.0, 2. Slow dose addition of alkynated PADRE 3 into the reaction, and 3. make stock solution of alkynated PADRE 3 in water instead of DMSO to eliminate the need for a lyophilization step.
A reaction was run omitting DMSO from a click conjugate protocol for alkynated trimeric gp120 Epitope mimic peptides using 5 mM Sodium ascorbate, 5 mM aminoguanidine, 0.1 mM CuSO4, and 0.5 mM THPTA ligand in 10 mM phosphate buffer at pH 7.4 containing 5% DMSO for 18 hr [Schellinger et al. (2011) J Am Chem Soc 133(10):3230-3233]. […]

## {d-ALA}KVAAWTLKAA{d-ALA}{Pra} ([dA]KVAAWTLKAA[dA][Pra]) [PADRE 3]
37° C. in the incubator at 200 rpm agitation, DMSO omitted
  peptide solution solubility: stayed soluble
Alkynated PADRE 3 stock in water, after 18 hr at room temperature
  stock solution staying in solution: did not come out of solution
